Measured values as given in patent publication US7344856.
“Also recorded” adds a separate entry of the source.

Assays:
[1] = target: fusion protein PRhCT, P01258
Dynorphine A, P01213 = target: T1, Dynorphine A, P01213
T1 chain: YGGFLRRIRPKLKWDNQ

[2] = target: fusion protein PRhANP, P01160
[3] = target: fusion protein expressed by pG117S4HompRHKR

Sequence of fusion protein PRhANP, P01160 (P01160 other isoform, or with tags, fused parts or gaps): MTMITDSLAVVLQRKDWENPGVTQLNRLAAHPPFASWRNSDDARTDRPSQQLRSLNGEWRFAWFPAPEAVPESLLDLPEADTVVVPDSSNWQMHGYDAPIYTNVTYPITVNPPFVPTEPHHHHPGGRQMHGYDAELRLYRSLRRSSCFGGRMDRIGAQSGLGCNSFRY
Sequence of fusion protein PRhCT, P01258 (P01258 other isoform, or with tags, fused parts or gaps): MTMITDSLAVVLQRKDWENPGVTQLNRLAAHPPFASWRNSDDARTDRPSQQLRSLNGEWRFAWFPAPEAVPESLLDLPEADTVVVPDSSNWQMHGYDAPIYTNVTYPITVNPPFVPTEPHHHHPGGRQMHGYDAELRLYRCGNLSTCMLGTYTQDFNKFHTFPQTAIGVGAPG

B1: E. coli OmpT protease (purified OmpT protease specimen) (protein)
chain: STETLSFTPDNINADISLGTLSGKTKERVYLAEEGGRKVSQLDWKFNNAAIIKGAINWDLMPQISIGAAGWTTLGSRGGNMVDQDWMDSSNPGTWTDESRHPDTQLNYANEFDLNIKGWLLNEPNYRLGLMAGYQESRYSFTARGGSYIYSSEEGFRDDIGSFPNGERAIGYKQRFKMPYIGLTGSYRYEDFELGGTFKYSGWVESSDNDEHYDPGKRITYRSKVKDQNYYSVAVNAGYYVTPNAKVYVEGAWNRVTNKKGNTSLYDHNNNTSDYSKNGAGIENYNFITTAGLKYTF
For B1, the “cleavage by OmpT protease (SDS-PAGE)” value (fusion protein PKR) was “PKK and PKR employed as positive controls were cleaved by OmpT protease”, the “cleavage by OmpT protease (SDS-PAGE)” value [1] was “PRhCT was not cleaved thereby” and the Relative amount of 4.9 kDa peptide (HPLC; 25 C, 60 min, pH 7.0) (relative to PRR = 100) (fusion protein PRR) was 100. The Relative amount of 4.9 kDa peptide (HPLC; OmpT 0.1 U/ml, 25 C, 60 min) (relative to PRR = 100) (fusion protein PRR) was 100, the Relative amount of 4.9 kDa peptide (HPLC; OmpT 2.0 U/ml, 25 C, 60 min) (relative to PRR = 100) (fusion protein PRR) was 100 and the “cleavage by OmpT protease (SDS-PAGE)” value (fusion protein PRR) was “the cleavage by OmpT protease was confirmed in the fusion proteins other than PRR-1A”. For the same protein, the “cleavage by OmpT protease (SDS-PAGE; OmpT 0.1 U/ml)” value (fusion protein PRR) was “the cleavage by OmpT protease was observed in all of the fusion proteins”, the “cleavage by OmpT protease (SDS-PAGE; OmpT 2.0 U/ml)” value (fusion protein PRR) was “the cleavage by OmpT protease was observed in all of the fusion proteins” and the “cleavage efficiency by OmpT protease” value (fusion protein PRC) was “Alanine and cysteine were selected because they provided relatively high cleavage efficiency in Example 3”. For the same protein, the “cleavage by OmpT protease (SDS-PAGE)” value (fusion protein PKA) was “PKA and PKS forming no basic amino acid pair were cleaved by OmpT protease”, the “cleavage at sites inside the α-hANP moiety” value (fusion protein RRhANP) was “arginine-arginine alone was slightly cleaved, among the four sites (arginine-arginine, arginine-methionine, arginine-isoleucine and arginine-tyrosine) existing in α-hANP molecule ... while the other bonds were scarcely cleaved” and the “cleavage by OmpT protease (SDS-PAGE)” value (fusion protein RRhANP) was “cleavage by OmpT protease was observed in RRhANP, RAhANP and RChANP”. The “cleavage by OmpT protease (SDS-PAGE)” value (fusion protein RShANP) was “it was confirmed that RShANP could be cleaved by OmpT protease”, the “cleavage by OmpT protease (SDS-PAGE)” value (fusion protein PKE) was “PKD and PKE were not cleaved by OmpT protease” and the Relative amount of 4.9 kDa peptide (HPLC; 25 C, 60 min, pH 7.0) (relative to PRR = 100) (fusion protein PRR-5A) was 89. For the same protein, the “cleavage by OmpT protease (SDS-PAGE)” value (fusion protein PRR-5A) was “the cleavage by OmpT protease was confirmed in the fusion proteins other than PRR-1A”, the “cleavage by OmpT protease (SDS-PAGE)” value (fusion protein PRD) was “In PRD and PRE, no cleavage by OmpT protease was observed” and the “cleavage by OmpT protease (SDS-PAGE)” value (fusion protein PKK) was “PKK and PKR employed as positive controls were cleaved by OmpT protease”. For the same protein, the “OmpT protease activity (cleavage of Dynorphine A, HPLC)” value (Dynorphine A, P01213) was 40 U/ml, the “cleavage at sites inside the α-hANP moiety” value (fusion protein RAhANP) was “arginine-arginine alone was slightly cleaved, among the four sites (arginine-arginine, arginine-methionine, arginine-isoleucine and arginine-tyrosine) existing in α-hANP molecule ... while the other bonds were scarcely cleaved” and the “cleavage by OmpT protease (SDS-PAGE)” value (fusion protein RAhANP) was “cleavage by OmpT protease was observed in RRhANP, RAhANP and RChANP”. The Relative amount of 4.9 kDa peptide (HPLC; OmpT 2.0 U/ml, 25 C, 60 min) (relative to PRR = 100) (fusion protein PRR-4K) was 96, the “cleavage by OmpT protease (SDS-PAGE; OmpT 2.0 U/ml)” value (fusion protein PRR-4K) was “the cleavage by OmpT protease was observed in all of the fusion proteins” and the Relative amount of 4.9 kDa peptide (HPLC; 25 C, 60 min, pH 7.0) (relative to PRR = 100) (fusion protein PRR-10A) was 160. For the same protein, the “cleavage by OmpT protease (SDS-PAGE)” value (fusion protein PRR-10A) was “the cleavage by OmpT protease was confirmed in the fusion proteins other than PRR-1A”, the Relative amount of 4.9 kDa peptide (HPLC; OmpT 0.1 U/ml, 25 C, 60 min) (relative to PRR = 100) (fusion protein PRR-6K) was 1400 and the “cleavage by OmpT protease (SDS-PAGE; OmpT 0.1 U/ml)” value (fusion protein PRR-6K) was “the cleavage by OmpT protease was observed in all of the fusion proteins”. The “cleavage efficiency by OmpT protease” value (fusion protein PRA) was “Alanine and serine were employed because they showed relatively high cleavage efficiency in Example 3; also recorded: Alanine and cysteine were selected because they provided relatively high cleavage efficiency in Example 3”, the “cleavage at sites inside the α-hANP moiety” value (fusion protein RChANP) was “arginine-arginine alone was slightly cleaved, among the four sites (arginine-arginine, arginine-methionine, arginine-isoleucine and arginine-tyrosine) existing in α-hANP molecule ... while the other bonds were scarcely cleaved” and the “cleavage by OmpT protease (SDS-PAGE)” value (fusion protein RChANP) was “cleavage by OmpT protease was observed in RRhANP, RAhANP and RChANP”. For the same protein, the “relative amount of the released α-hANP (HPLC peak at 4.7 minutes; OmpT 2.0 U/ml, 25 C, 90 min)” value (fusion protein RShANPR) was 2.2 times as much as that of RShANP, the Relative amount of 4.9 kDa peptide (HPLC; 25 C, 60 min, pH 7.0) (relative to PRR = 100) (fusion protein PRR-2A) was 150 and the “cleavage by OmpT protease (SDS-PAGE)” value (fusion protein PRR-2A) was “the cleavage by OmpT protease was confirmed in the fusion proteins other than PRR-1A”. For the same protein, the Relative amount of 4.9 kDa peptide (HPLC; 25 C, 60 min, pH 7.0) (relative to PRR = 100) (fusion protein PRR-4A) was 24, the Relative amount of 4.9 kDa peptide (HPLC; OmpT 2.0 U/ml, 25 C, 60 min) (relative to PRR = 100) (fusion protein PRR-4A) was 49 and the “cleavage by OmpT protease (SDS-PAGE)” value (fusion protein PRR-4A) was “the cleavage by OmpT protease was confirmed in the fusion proteins other than PRR-1A”. The “cleavage by OmpT protease (SDS-PAGE; OmpT 2.0 U/ml)” value (fusion protein PRR-4A) was “the cleavage by OmpT protease was observed in all of the fusion proteins”, the Relative amount of 4.9 kDa peptide (HPLC; OmpT 2.0 U/ml, 25 C, 60 min) (relative to PRR = 100) (fusion protein PRR-4N) was 48 and the “cleavage by OmpT protease (SDS-PAGE; OmpT 2.0 U/ml)” value (fusion protein PRR-4N) was “the cleavage by OmpT protease was observed in all of the fusion proteins”. The Relative amount of 4.9 kDa peptide (HPLC; OmpT 0.1 U/ml, 25 C, 60 min) (relative to PRR = 100) (fusion protein PRR-6R) was 1000, the “cleavage by OmpT protease (SDS-PAGE; OmpT 0.1 U/ml)” value (fusion protein PRR-6R) was “the cleavage by OmpT protease was observed in all of the fusion proteins” and the Relative amount of 4.9 kDa peptide (HPLC; OmpT 0.1 U/ml, 25 C, 60 min) (relative to PRR = 100) (fusion protein PRR-6D) was 110. The “cleavage by OmpT protease (SDS-PAGE; OmpT 0.1 U/ml)” value (fusion protein PRR-6D) was “the cleavage by OmpT protease was observed in all of the fusion proteins”, the “cleavage by OmpT protease (SDS-PAGE)” value (fusion protein PRR-1A) was “The PRR-1A was not cleaved by OmpT protease” and the Relative amount of 4.9 kDa peptide (HPLC; 25 C, 60 min, pH 7.0) (relative to PRR = 100) (fusion protein PRR-8A) was 200. For the same protein, the “cleavage by OmpT protease (SDS-PAGE)” value (fusion protein PRR-8A) was “the cleavage by OmpT protease was confirmed in the fusion proteins other than PRR-1A”, the Relative amount of 4.9 kDa peptide (HPLC; 25 C, 60 min, pH 7.0) (relative to PRR = 100) (fusion protein PRR-3A) was 44 and the “cleavage by OmpT protease (SDS-PAGE)” value (fusion protein PRR-3A) was “the cleavage by OmpT protease was confirmed in the fusion proteins other than PRR-1A”. For the same protein, the “cleavage by OmpT protease (SDS-PAGE)” value [2] was “PRhANP was cleaved by OmpT protease”, the “cleavage by OmpT protease (SDS-PAGE)” value (fusion protein PRE) was “In PRD and PRE, no cleavage by OmpT protease was observed” and the “cleavage by OmpT protease (SDS-PAGE)” value (fusion protein PKD) was “PKD and PKE were not cleaved by OmpT protease”. The Relative amount of 4.9 kDa peptide (HPLC; OmpT 0.1 U/ml, 25 C, 60 min) (relative to PRR = 100) (fusion protein PRR-6N) was 430, the “cleavage by OmpT protease (SDS-PAGE; OmpT 0.1 U/ml)” value (fusion protein PRR-6N) was “the cleavage by OmpT protease was observed in all of the fusion proteins” and the Relative amount of 4.9 kDa peptide (HPLC; 25 C, 60 min, pH 7.0) (relative to PRR = 100) (fusion protein PRR-6A) was 330. For the same protein, the Relative amount of 4.9 kDa peptide (HPLC; OmpT 0.1 U/ml, 25 C, 60 min) (relative to PRR = 100) (fusion protein PRR-6A) was 310, the “cleavage by OmpT protease (SDS-PAGE)” value (fusion protein PRR-6A) was “the cleavage by OmpT protease was confirmed in the fusion proteins other than PRR-1A” and the “cleavage by OmpT protease (SDS-PAGE; OmpT 0.1 U/ml)” value (fusion protein PRR-6A) was “the cleavage by OmpT protease was observed in all of the fusion proteins”. The Relative amount of 4.9 kDa peptide (HPLC; OmpT 0.1 U/ml, 25 C, 60 min) (relative to PRR = 100) (fusion protein PRR-6Q) was 390, the “cleavage by OmpT protease (SDS-PAGE; OmpT 0.1 U/ml)” value (fusion protein PRR-6Q) was “the cleavage by OmpT protease was observed in all of the fusion proteins” and the Relative amount of 4.9 kDa peptide (HPLC; OmpT 2.0 U/ml, 25 C, 60 min) (relative to PRR = 100) (fusion protein PRR-4Q) was 23. For the same protein, the “cleavage by OmpT protease (SDS-PAGE; OmpT 2.0 U/ml)” value (fusion protein PRR-4Q) was “the cleavage by OmpT protease was observed in all of the fusion proteins”, the Relative amount of 4.9 kDa peptide (HPLC; OmpT 2.0 U/ml, 25 C, 60 min) (relative to PRR = 100) (fusion protein PRR-4D) was 2.8 and the “cleavage by OmpT protease (SDS-PAGE; OmpT 2.0 U/ml)” value (fusion protein PRR-4D) was “the cleavage by OmpT protease was observed in all of the fusion proteins”. The “cleavage efficiency by OmpT protease” value (fusion protein PRS) was “Alanine and serine were employed because they showed relatively high cleavage efficiency in Example 3”, the Relative amount of 4.9 kDa peptide (HPLC; OmpT 2.0 U/ml, 25 C, 60 min) (relative to PRR = 100) (fusion protein PRR-4E) was 2 and the “cleavage by OmpT protease (SDS-PAGE; OmpT 2.0 U/ml)” value (fusion protein PRR-4E) was “the cleavage by OmpT protease was observed in all of the fusion proteins”. For the same protein, the “cleavage by OmpT protease (preliminary experiments)” value [3] was “this fusion protein is cleaved at two sites when treated with OmpT protease”, the “cleavage by OmpT protease (SDS-PAGE)” value (fusion protein PKS) was “PKA and PKS forming no basic amino acid pair were cleaved by OmpT protease” and the Relative amount of 4.9 kDa peptide (HPLC; 25 C, 60 min, pH 7.0) (relative to PRR = 100) (fusion protein PRR-9A) was 160. The “cleavage by OmpT protease (SDS-PAGE)” value (fusion protein PRR-9A) was “the cleavage by OmpT protease was confirmed in the fusion proteins other than PRR-1A”.
